B1: KCTD10 (parent)
chain: SSKEEQKLIATSNKPAVKLLYNRS
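Note: lentivirally expressed fusions sorted by FACS into six bins by GFP to DsRed ratio, PSI derived from sequencing read proportions per bin multiplied by bin number.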

The variants in the data set derive from B1. As to the kind of experiment: protein stability index of a GFP-peptide fusion (GPS, HEK-293T) (PSI 1-6); higher = more stable. Particulars: c terminus: a fixed tail appended.
On to SSKEEQKLIATSNKPAVRLLYNRS [K18R], for which the protein stability index is 4.33.

In the case of SSKEEQKLIATSNKPAVVLLYNRS [K18V], the protein stability index was determined as 3.13.

Regarding SSKEEQKLIATSNKPAVELLYNRS [K18E], the protein stability index worked out at 4.34.

Turning to SSKEEQKLIATSNKPAVHLLYNRS [K18H], the protein stability index was found to be 3.89.

With SSKEEQKLIATSNKPAVDLLYNRS [K18D], the protein stability index is 4.25.

Take SSKEEQKLIATSNKPAVQLLYNRS [K18Q]: the protein stability index worked out at 4.39.

As for SSKEEQKLIATSNKPAVGLLYNRS [K18G], the protein stability index was 4.02.

As for SSKEEQKLIATSNKPAVILLYNRS [K18I], the protein stability index was 2.34.

Regarding SSKEEQKLIATSNKPAVMLLYNRS [K18M], the protein stability index came to 3.45.

In the case of SSKEEQKLIATSNKPAVLLLYNRS [K18L], the protein stability index amounted to 3.25.

SSKEEQKLIATSNKPAVYLLYNRS [K18Y]: the protein stability index came to 3.03.

As to SSKEEQKLIATSNKPAVFLLYNRS [K18F], the protein stability index worked out at 2.83.

Regarding SSKEEQKLIATSNKPAVWLLYNRS [K18W], the protein stability index is 2.4.

Regarding SSKEEQKLIATSNKPAVSLLYNRS [K18S], the protein stability index worked out at 4.39.

Turning to SSKEEQKLIATSNKPAVTLLYNRS [K18T], the protein stability index stood at 3.74.

SSKEEQKLIATSNKPAVALLYNRS [K18A]: the protein stability index amounted to 4.05.

SSKEEQKLIATSNKPAVNLLYNRS [K18N]: the protein stability index was found to be 4.26.

SSKEEQKLIATSNKPAVCLLYNRS [K18C]: the protein stability index turned out to be 4.21.

Consider SSKEEQKLIATSNKDAVKLLYNRS [P15D], for which the protein stability index worked out at 4.2.

For SSKEEQKLIATSNKVAVKLLYNRS [P15V], the protein stability index is 3.13.

In the case of SSKEEQKLIATSNKCAVKLLYNRS [P15C], the protein stability index was 2.96.

With SSKEEQKLIATSNKGAVKLLYNRS [P15G], the protein stability index was determined as 4.24.

On to SSKEEQKLIATSNKLAVKLLYNRS [P15L], for which the protein stability index amounted to 2.93.

As to SSKEEQKLIATSNKWAVKLLYNRS [P15W], the protein stability index is 2.19.

For the variant SSKEEQKLIATSNKNAVKLLYNRS [P15N], the protein stability index is 4.08.

Take SSKEEQKLIATSNKSAVKLLYNRS [P15S]: the protein stability index was 4.07.

As for SSKEEQKLIATSNKRAVKLLYNRS [P15R], the protein stability index amounted to 3.51.

Consider SSKEEQKLIATSNKAAVKLLYNRS [P15A], for which the protein stability index was 3.54.

For SSKEEQKLIATSNKKAVKLLYNRS [P15K], the protein stability index stood at 3.39.

Take SSKEEQKLIATSNKFAVKLLYNRS [P15F]: the protein stability index was found to be 3.1.

Consider SSKEEQKLIATSNKEAVKLLYNRS [P15E], for which the protein stability index was 4.53.

For the variant SSKEEQKLIATSNKIAVKLLYNRS [P15I], the protein stability index was determined as 2.81.

On to SSKEEQKLIATSNKYAVKLLYNRS [P15Y], for which the protein stability index is 3.1.

Regarding SSKEEQKLIATSNKQAVKLLYNRS [P15Q], the protein stability index amounted to 3.96.

For the variant SSKEEQKLIATSNKTAVKLLYNRS [P15T], the protein stability index was 3.73.

As to SSKEEQKLIATSNKHAVKLLYNRS [P15H], the protein stability index stood at 3.86.

For SSKEEQKLIATSNKMAVKLLYNRS [P15M], the protein stability index was 3.47.

Consider SSKEEQKLIATGNKPAVKLLYNRS [S12G], for which the protein stability index is 3.89.

Consider SSKEEQKLIATFNKPAVKLLYNRS [S12F], for which the protein stability index is 3.34.

On to SSKEEQKLIATNNKPAVKLLYNRS [S12N], for which the protein stability index is 4.02.

Turning to SSKEEQKLIATANKPAVKLLYNRS [S12A], the protein stability index worked out at 3.89.

With SSKEEQKLIATENKPAVKLLYNRS [S12E], the protein stability index was 4.42.

Consider SSKEEQKLIATYNKPAVKLLYNRS [S12Y], for which the protein stability index came out at 3.38.

Regarding SSKEEQKLIATKNKPAVKLLYNRS [S12K], the protein stability index is 4.27.

Consider SSKEEQKLIATVNKPAVKLLYNRS [S12V], for which the protein stability index was 3.88.

For SSKEEQKLIATCNKPAVKLLYNRS [S12C], the protein stability index stood at 3.81.

For SSKEEQKLIATDNKPAVKLLYNRS [S12D], the protein stability index worked out at 4.52.

SSKEEQKLIATQNKPAVKLLYNRS [S12Q]: the protein stability index turned out to be 4.26.

In the case of SSKEEQKLIATWNKPAVKLLYNRS [S12W], the protein stability index came out at 2.79.

SSKEEQKLIATINKPAVKLLYNRS [S12I]: the protein stability index was 3.92.

Take SSKEEQKLIATRNKPAVKLLYNRS [S12R]: the protein stability index came out at 4.02.

Consider SSKEEQKLIATMNKPAVKLLYNRS [S12M], for which the protein stability index was determined as 3.42.

Take SSKEEQKLIATLNKPAVKLLYNRS [S12L]: the protein stability index was determined as 3.72.

With SSKEEQKLIATTNKPAVKLLYNRS [S12T], the protein stability index is 4.34.

Regarding SSKEEQKLIATPNKPAVKLLYNRS [S12P], the protein stability index was 4.29.

As for SSKEEQKLIATHNKPAVKLLYNRS [S12H], the protein stability index turned out to be 3.46.

Regarding SSKEEQKLIATSNKPYVKLLYNRS [A16Y], the protein stability index was determined as 3.56.

As for SSKEEQKLIATSNKPTVKLLYNRS [A16T], the protein stability index came out at 4.1.

With SSKEEQKLIATSNKPSVKLLYNRS [A16S], the protein stability index was determined as 4.2.

Consider SSKEEQKLIATSNKPVVKLLYNRS [A16V], for which the protein stability index is 3.89.

As to SSKEEQKLIATSNKPFVKLLYNRS [A16F], the protein stability index was 3.57.

For SSKEEQKLIATSNKPGVKLLYNRS [A16G], the protein stability index was 3.79.

With SSKEEQKLIATSNKPQVKLLYNRS [A16Q], the protein stability index worked out at 4.19.

Regarding SSKEEQKLIATSNKPPVKLLYNRS [A16P], the protein stability index worked out at 3.95.

With SSKEEQKLIATSNKPLVKLLYNRS [A16L], the protein stability index turned out to be 3.54.

With SSKEEQKLIATSNKPNVKLLYNRS [A16N], the protein stability index was found to be 4.19.

On to SSKEEQKLIATSNKPCVKLLYNRS [A16C], for which the protein stability index was found to be 3.74.

With SSKEEQKLIATSNKPDVKLLYNRS [A16D], the protein stability index turned out to be 4.18.

Turning to SSKEEQKLIATSNKPWVKLLYNRS [A16W], the protein stability index is 2.94.

With SSKEEQKLIATSNKPRVKLLYNRS [A16R], the protein stability index was found to be 3.8.

For the variant SSKEEQKLIATSNKPIVKLLYNRS [A16I], the protein stability index was 3.97.

Regarding SSKEEQKLIATSNKPMVKLLYNRS [A16M], the protein stability index turned out to be 3.84.

With SSKEEQKLIATSNKPEVKLLYNRS [A16E], the protein stability index turned out to be 4.26.

As for SSKEEQKLIATSNKPHVKLLYNRS [A16H], the protein stability index stood at 4.16.

SSKEEQKLIATSNKPKVKLLYNRS [A16K]: the protein stability index came to 4.33.

As for SSKEEQKLIATSNKPAQKLLYNRS [V17Q], the protein stability index was found to be 4.52.

For the variant SSKEEQKLIATSNKPATKLLYNRS [V17T], the protein stability index amounted to 4.28.

Turning to SSKEEQKLIATSNKPARKLLYNRS [V17R], the protein stability index was 3.94.

SSKEEQKLIATSNKPAIKLLYNRS [V17I]: the protein stability index stood at 4.02.

Consider SSKEEQKLIATSNKPANKLLYNRS [V17N], for which the protein stability index amounted to 4.76.

SSKEEQKLIATSNKPAHKLLYNRS [V17H]: the protein stability index was 4.35.

With SSKEEQKLIATSNKPALKLLYNRS [V17L], the protein stability index was 4.02.

Turning to SSKEEQKLIATSNKPADKLLYNRS [V17D], the protein stability index is 4.41.

SSKEEQKLIATSNKPAWKLLYNRS [V17W]: the protein stability index was determined as 3.39.

For SSKEEQKLIATSNKPAPKLLYNRS [V17P], the protein stability index came to 4.31.

Turning to SSKEEQKLIATSNKPAFKLLYNRS [V17F], the protein stability index amounted to 2.74.

For the variant SSKEEQKLIATSNKPAGKLLYNRS [V17G], the protein stability index came out at 4.3.

Regarding SSKEEQKLIATSNKPAMKLLYNRS [V17M], the protein stability index came to 3.97.

Turning to SSKEEQKLIATSNKPAAKLLYNRS [V17A], the protein stability index stood at 4.34.

Consider SSKEEQKLIATSNKPASKLLYNRS [V17S], for which the protein stability index worked out at 4.3.

Consider SSKEEQKLIATSNKPAYKLLYNRS [V17Y], for which the protein stability index worked out at 3.51.

With SSKEEQKLIATSNKPAEKLLYNRS [V17E], the protein stability index was found to be 4.15.

SSKEEQKLIATSNKPACKLLYNRS [V17C]: the protein stability index stood at 4.21.

Take SSKEEQKLIATSNKPAKKLLYNRS [V17K]: the protein stability index was 4.61.

(Values after the supplement of paper PMC10567573.)
